The text below walks through data of publication PMC6338969, “Aptamer Conformation Switching-Induced Two-Stage Amplification for Fluorescent Detection of Proteins”.

One data set concerns the target PDGF-BB (UniProt P01127 82-190). Kind of data set: molecular beacon fluorescence with amplification; 1.0 ug/mL PDGF-BB; Aptamer + protein 15 min at 37 °C, then NEB buffer (pH 7.9) with Klenow exo- buffer, 37 °C, 2 h; 1 uM aptamer, 1 uM beacon, 2.5 uM primer, 2 mM dNTPs, Klenow exo- and Nt.BbvCI 1 U/uL each; salt not stated. The note with it: protein: commercial; chain copies: 2.

Data set [1] addresses carcino-embryonic antigen (CEA) (UniProt P06731 35-685). Briefly: molecular beacon fluorescence with amplification; 0.1 mg/mL CEA; Aptamer + protein 15 min at 37 °C, then NEB buffer (pH 7.9) with Klenow exo- buffer, 37 °C, 2 h; 1 uM aptamer, 1 uM beacon, 2.5 uM primer, 2 mM dNTPs, Klenow exo- and Nt.BbvCI 1 U/uL each; salt not stated. The note with it: protein: commercial; Y-shaped complex with target.

Data set [2] has as its target prostate-specific antigen (PSA) (UniProt P07288 25-261). Briefly: molecular beacon fluorescence with amplification; 0.1 mg/mL PSA; Aptamer + protein 15 min at 37 °C, then NEB buffer (pH 7.9) with Klenow exo- buffer, 37 °C, 2 h; 1 uM aptamer, 1 uM beacon, 2.5 uM primer, 2 mM dNTPs, Klenow exo- and Nt.BbvCI 1 U/uL each; salt not stated. To be noted: protein: commercial; Y-shaped complex with target.

Sequence of prostate-specific antigen (PSA) (P07288 25-261): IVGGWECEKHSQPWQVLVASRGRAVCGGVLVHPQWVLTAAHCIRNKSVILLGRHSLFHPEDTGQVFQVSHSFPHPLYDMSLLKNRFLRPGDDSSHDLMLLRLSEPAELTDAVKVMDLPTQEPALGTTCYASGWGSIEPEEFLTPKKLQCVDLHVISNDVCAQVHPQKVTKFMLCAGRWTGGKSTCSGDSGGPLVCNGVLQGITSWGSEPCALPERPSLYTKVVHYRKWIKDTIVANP
Sequence of carcino-embryonic antigen (CEA) (P06731 35-685): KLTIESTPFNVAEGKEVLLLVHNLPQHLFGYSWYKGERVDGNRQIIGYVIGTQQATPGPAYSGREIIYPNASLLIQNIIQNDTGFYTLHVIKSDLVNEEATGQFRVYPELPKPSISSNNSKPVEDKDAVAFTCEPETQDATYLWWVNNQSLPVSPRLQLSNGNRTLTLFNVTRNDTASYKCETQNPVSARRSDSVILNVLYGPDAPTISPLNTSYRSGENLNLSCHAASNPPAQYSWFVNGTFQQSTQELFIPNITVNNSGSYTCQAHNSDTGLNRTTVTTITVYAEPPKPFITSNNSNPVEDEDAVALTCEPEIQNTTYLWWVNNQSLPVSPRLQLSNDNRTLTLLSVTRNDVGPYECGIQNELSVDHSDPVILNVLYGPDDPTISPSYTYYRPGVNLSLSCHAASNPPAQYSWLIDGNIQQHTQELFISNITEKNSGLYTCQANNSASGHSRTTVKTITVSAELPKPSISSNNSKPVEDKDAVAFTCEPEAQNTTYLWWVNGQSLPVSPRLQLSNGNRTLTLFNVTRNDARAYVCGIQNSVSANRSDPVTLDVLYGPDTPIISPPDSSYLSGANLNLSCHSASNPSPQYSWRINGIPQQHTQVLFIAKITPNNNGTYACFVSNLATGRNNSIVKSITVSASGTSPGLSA
Sequence of PDGF-BB (P01127 82-190): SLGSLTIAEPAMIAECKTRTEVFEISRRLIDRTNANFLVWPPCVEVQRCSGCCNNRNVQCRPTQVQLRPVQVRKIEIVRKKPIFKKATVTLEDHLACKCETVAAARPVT

B1: Control DNA aptamer (ssDNA)
DNA: TGCACCTCAGCATTTCCGTGGTAGGGCAGGTTGGGGTGATTTCTATTCAATCCGAGCAGGAACG
As to B1, in the data set with PDGF-BB, the binding result is reported as “no binding”.

B2: PDGF-BB DNA aptamer (switch) (structured_DNA)
DNA: TGCACCTCAGCAGCAGGCTACGGCACGTAGAGCATCACCATGATCCTGCATCCGAGCAGGAACG
As to B2, the binding result in data set [1] and in data set [2] was “no binding” throughout.
